Test results taken from paper PMC11096414.

Biological target: Flag-tagged MAVS wt, Q7Z434
Test: co-IP
Conditions: remark: other sources report otherwise

Flag-tagged MAVS wt, Q7Z434, sequence (Q7Z434 whole entry): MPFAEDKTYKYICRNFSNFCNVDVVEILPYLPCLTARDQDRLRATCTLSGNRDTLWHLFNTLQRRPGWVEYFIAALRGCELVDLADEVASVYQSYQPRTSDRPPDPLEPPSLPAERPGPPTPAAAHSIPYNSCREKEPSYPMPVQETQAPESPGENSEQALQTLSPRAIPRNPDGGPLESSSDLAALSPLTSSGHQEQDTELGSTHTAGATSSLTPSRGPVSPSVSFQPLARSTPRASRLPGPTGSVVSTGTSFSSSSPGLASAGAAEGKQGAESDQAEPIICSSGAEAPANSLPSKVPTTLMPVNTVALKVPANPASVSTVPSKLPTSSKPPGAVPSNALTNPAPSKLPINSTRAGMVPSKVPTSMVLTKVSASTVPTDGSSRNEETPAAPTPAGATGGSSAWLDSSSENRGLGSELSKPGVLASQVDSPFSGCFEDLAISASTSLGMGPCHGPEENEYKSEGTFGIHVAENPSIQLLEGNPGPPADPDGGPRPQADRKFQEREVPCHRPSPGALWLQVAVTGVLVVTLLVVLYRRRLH

B1: GFP-tagged TBK1, Q9UHD2 1-729 (enzyme)
chain: MQSTSNHLWLLSDILGQGATANVFRGRHKKTGDLFAIKVFNNISFLRPVDVQMREFEVLKKLNHKNIVKLFAIEEETTTRHKVLIMEFCPCGSLYTVLEEPSNAYGLPESEFLIVLRDVVGGMNHLRENGIVHRDIKPGNIMRVIGEDGQSVYKLTDFGAARELEDDEQFVSLYGTEEYLHPDMYERAVLRKDHQKKYGATVDLWSIGVTFYHAATGSLPFRPFEGPRRNKEVMYKIITGKPSGAISGVQKAENGPIDWSGDMPVSCSLSRGLQVLLTPVLANILEADQEKCWGFDQFFAETSDILHRMVIHVFSLQQMTAHKIYIHSYNTATIFHELVYKQTKIISSNQELIYEGRRLVLEPGRLAQHFPKTTEENPIFVVSREPLNTIGLIYEKISLPKVHPRYDLDGDASMAKAITGVVCYACRIASTLLLYQELMRKGIRWLIELIKDDYNETVHKKTEVVITLDFCIRNIEKTVKVYEKLMKINLEAAELGEISDIHTKLLRLSSSQGTIETSLQDIDSRLSPGGSLADAWAHQEGTHPKDRNVEKLQVLLNCMTEIYYQFKKDKAERRLAYNEEQIHKFDKQKLYYHATKAMTHFTDECVKKYEAFLNKSEEWIRKMLHLRKQLLSLTNQCFDIEEEVSKYQEYTNELQETLPQKMFTASSGIKHTMTPIYPSSNTLVEMTLGMKKLKEEMEGVVKELAENNHILERFGSLTMDGGLRNVDCL
  fold reduction of the co-precipitate in the presence of 4-OI (against no 4-OI): 3.7 fold

B2: GFP-tagged RIG-I, O95786 1-925 (natural protein)
chain: MTTEQRRSLQAFQDYIRKTLDPTYILSYMAPWFREEEVQYIQAEKNNKGPMEAATLFLKFLLELQEEGWFRGFLDALDHAGYSGLYEAIESWDFKKIEKLEEYRLLLKRLQPEFKTRIIPTDIISDLSECLINQECEEILQICSTKGMMAGAEKLVECLLRSDKENWPKTLKLALEKERNKFSELWIVEKGIKDVETEDLEDKMETSDIQIFYQEDPECQNLSENSCPPSEVSDTNLYSPFKPRNYQLELALPAMKGKNTIICAPTGCGKTFVSLLICEHHLKKFPQGQKGKVVFFANQIPVYEQQKSVFSKYFERHGYRVTGISGATAENVPVEQIVENNDIIILTPQILVNNLKKGTIPSLSIFTLMIFDECHNTSKQHPYNMIMFNYLDQKLGGSSGPLPQVIGLTASVGVGDAKNTDEALDYICKLCASLDASVIATVKHNLEELEQVVYKPQKFFRKVESRISDKFKYIIAQLMRDTESLAKRICKDLENLSQIQNREFGTQKYEQWIVTVQKACMVFQMPDKDEESRICKALFLYTSHLRKYNDALIISEHARMKDALDYLKDFFSNVRAAGFDEIEQDLTQRFEEKLQELESVSRDPSNENPKLEDLCFILQEEYHLNPETITILFVKTRALVDALKNWIEGNPKLSFLKPGILTGRGKTNQNTGMTLPAQKCILDAFKASGDHNILIATSVADEGIDIAQCNLVILYEYVGNVIKMIQTRGRGRARGSKCFLLTSNAGVIEKEQINMYKEKMMNDSILRLQTWDEAVFREKILHIQTHEKFIRDSQEKPKPVPDKENKKLLCRKCKALACYTADVRVIEECHYTVLGDAFKECFVSRPHPKPKQFSSFEKRAKIFCARQNCSHDWGIHVKYKTFEIPVIKIESFVVEDIATGVQTLYSKWKDFHFEKIPFDPAEMSK
  fold reduction of the co-precipitate in the presence of 4-OI (against no 4-OI): 1.6 fold
